Data set [1] relates to Tnp sC7v2.0 purified R8C,E58V,E344K,L372Q. In words: cleavage_in_vitro. To be noted: dam methylation of adenines in the two GATC sites (four methyl groups per end); in vitro transposition, 3 h, 37C, 280 nM Tnp, 35.5 nM pGT4.
In another data set the test system is Tnp T171S plus one T171S. In words: cell_activity. To be noted: mating out, dam+ strain.
Data set [2] has as its system sC7 E58V minus one R8C,A157T,T171S,D217A,E344K,L372Q. The experiment in a line: cell_activity. To be noted: mating out, dam+ strain.
Data set [3] concerns sC7 L372Q minus one R8C,E58V,A157T,T171S,D217A,E344K. The experiment in a line: cell_activity. To be noted: mating out, dam+ strain.
Data set [4] concerns sC7 R8C minus one E58V,A157T,T171S,D217A,E344K,L372Q. In words: cell_activity. To be noted: mating out, dam+ strain.
Data set [5] relates to Tnp sC7(157,217) R8C,E58V,T171S,E344K,L372Q. In words: cell_activity. To be noted: mating out, dam+ strain.
The subject of another data set is Tnp E344K plus one E344K. In words: cell_activity. To be noted: mating out, dam+ strain.
The subject of data set [6] is Tnp sC7v2.0 (sC7(157,171,217)) R8C,E58V,E344K,L372Q. The experiment in a line: cell_activity. To be noted: mating out, dam+ strain.
Data set [7] deals with sC7 T171S minus one R8C,E58V,A157T,D217A,E344K,L372Q. In words: cell_activity. To be noted: mating out, dam+ strain.
The subject of another data set is Tnp L372Q plus one L372Q. The experiment in a line: cell_activity. To be noted: mating out, dam+ strain.
Data set [8] concerns the target Tnp sC7 R8C,E58V,A157T,T171S,D217A,E344K,L372Q (UniProt Q46731). The experiment in a line: cell_activity. To be noted: mating out.
Data set [9] concerns sC7 D217A minus one R8C,E58V,A157T,T171S,E344K,L372Q. The experiment in a line: cell_activity. To be noted: mating out, dam+ strain.
Data set [10] relates to sC7 A157T minus one R8C,E58V,T171S,D217A,E344K,L372Q. In words: cell_activity. To be noted: mating out, dam+ strain.
Data set [11] relates to Tnp sC7(171,217) R8C,E58V,A157T,E344K,L372Q. The experiment in a line: cell_activity. To be noted: mating out, dam+ strain.
For data set [12], the system named is Tnp sC7(157,171) R8C,E58V,D217A,E344K,L372Q. The experiment in a line: cell_activity. To be noted: mating out, dam+ strain.
Data set [13] concerns the target Tn5 transposase wild-type (Tnp WT) (UniProt Q46731). The experiment in a line: cell_activity. To be noted: mating out.
In data set [14] the test system is sC7 E344K minus one R8C,E58V,A157T,T171S,D217A,L372Q. The experiment in a line: cell_activity. To be noted: mating out, dam+ strain.
For the next data set, the system named is Tnp E58V plus one E58V. The experiment in a line: cell_activity. To be noted: mating out, dam+ strain.
Another data set relates to Tnp A157T plus one A157T. The experiment in a line: cell_activity. To be noted: mating out, dam+ strain.
The subject of another data set is Tnp R8C plus one R8C. In words: cell_activity. To be noted: mating out, dam+ strain.
In a further data set the test system is Tnp D217A plus one D217A. The experiment in a line: cell_activity. To be noted: mating out, dam+ strain.
[15] abbreviates: dam methylation of adenines in the two GATC sites (four methyl groups per end).
Where [16] appears, read: dam methylation of adenines in the two GATC sites (four methyl groups per end), dam+ strain.

In data set [1], Dam-methylated Tn5 inside end (IEME) came in with an activity (% supercoiled plasmid converted) of 66. Moreover, the activity (transposition frequency) came to 5.6e-09 in the data set on Tnp T171S plus one T171S (setting [15]); 1.8e-06 in data set [2] (setting [15]); 0.00026 in data set [3] (setting [15]); 0.0031 in data set [4] (setting [15]); 0.0084 in data set [5] (setting [15]); 4.3e-08 in the data set with Tnp E344K plus one E344K (dam methylation of adenines in the two GATC sites (four methyl groups per end), 4.3-fold over WT). In addition, the activity (transposition frequency) in [6] (setting [15]) was 0.0074; in data set [7] (setting [15]), 0.0028; in the data set with Tnp L372Q plus one L372Q (dam methylation of adenines in the two GATC sites (four methyl groups per end), 8.9-fold over WT), 8.9e-08; in [8] (setting [16]), 0.0026; in [9] (setting [15]), 0.0037; in data set [10] (setting [15]), 0.0031. The activity (transposition frequency) in data set [11] (setting [15]) stood at 0.0058; in [12] (setting [15]), 0.0065; in data set [13] (setting [16]), 1e-08; in data set [14] (setting [15]), 0.00055; with Tnp E58V plus one E58V (dam methylation of adenines in the two GATC sites (four methyl groups per end), 40000-fold over WT), 0.0004.

Turning to Tn5 inside end (IE), unmethylated, the results for the activity (transposition frequency) in data set [8] (dam- strain) and in [13] (dam- strain) were 0.0018 and 6.5e-05, respectively.

Tn5 outside end (OE): the activity (transposition frequency) in the data set on Tnp T171S plus one T171S was determined as 1.8e-06; in [2], 1.1e-06; in data set [3] it was 2.8e-07; in the data set on Tnp A157T plus one A157T, 6.6e-07; in data set [4] it was 6e-06; in data set [5], 2.25e-05. The activity (transposition frequency) came to 4e-07 with Tnp R8C plus one R8C; 6.8e-07 in the data set on Tnp E344K plus one E344K; 7.1e-06 in data set [6]; 2.6e-06 in data set [7]; 1.1e-05 in the data set with Tnp L372Q plus one L372Q; 3.4e-06 in the data set with Tnp D217A plus one D217A. The activity (transposition frequency) in data set [8] (dam- strain, 3.3e-6 in dam+ strain) was 3.7e-05; in data set [9], 4.5e-06; in data set [10], 4e-06; in [11], 1.18e-05; in [12], 7e-06; in data set [13] (dam- strain, 3.1e-6 in dam+ strain), 6.5e-05. The values for the activity (transposition frequency) (in [14]; in the data set with Tnp E58V plus one E58V) were 1.7e-05 and 1.4e-06, respectively.

These data come from patent US6406896.
